Data set [1] has as its target T1, Bz-Ala-Ala-Tyr-Arg-His-Ala-Gly.
T1 chain: AAYRHAG

The target of data set [2] is N-alpha-benzoylated peptides of SEQ ID NOs: 3-19.

B1: trypsin variant Tn K60E, E151H, N143H, D189K (protein)
chain: IVGGYTCQENSVPYQVSLNSGYHFCGGSLINDQWVVSAAHCYESRIQVRLGEHNINVLEGNEQFVNAAKIIKHPNFDRKTLNNDIMLIKLSSPVKLNARVATVALPSSCAPAGTQCLISGWGHTLSSGVNHPDLLQCLDAPLLPQADCEASYPGKITDNMVCVGFLEGGKKSCQGDSGGPVVCNGELQGIVSWGYGCALPDNPGVYTKVCNYVDWIQDTIAAN
As to B1, the “yield of the transamidation product with Arg-His-Ala-Lys(6-CF)-OH (HPLC)” value in data set [1] is “obtained in a yield of >99%”. The “rate of reaction (initial rate of peptide consumption, HPLC)” value in data set [2] was “has a strong preference for a cleavage site comprising L, F or Y in position P1, R or K in position P1′ and His in position P2′”.

Values taken from patent US20080064079.
